Assay [1] addresses KLB (beta-klotho) on KLB only expressing cells (UniProt Q86Z14). Nature of the assay: cell-based or functional assay.
Assay [2] concerns the target KLB/FGFR4 on KLB/FGFR4 expressing cells (UniProt Q86Z14). Nature of the assay: cell-based or functional assay.

Sequence of KLB (beta-klotho) on KLB only expressing cells (Q86Z14 whole entry): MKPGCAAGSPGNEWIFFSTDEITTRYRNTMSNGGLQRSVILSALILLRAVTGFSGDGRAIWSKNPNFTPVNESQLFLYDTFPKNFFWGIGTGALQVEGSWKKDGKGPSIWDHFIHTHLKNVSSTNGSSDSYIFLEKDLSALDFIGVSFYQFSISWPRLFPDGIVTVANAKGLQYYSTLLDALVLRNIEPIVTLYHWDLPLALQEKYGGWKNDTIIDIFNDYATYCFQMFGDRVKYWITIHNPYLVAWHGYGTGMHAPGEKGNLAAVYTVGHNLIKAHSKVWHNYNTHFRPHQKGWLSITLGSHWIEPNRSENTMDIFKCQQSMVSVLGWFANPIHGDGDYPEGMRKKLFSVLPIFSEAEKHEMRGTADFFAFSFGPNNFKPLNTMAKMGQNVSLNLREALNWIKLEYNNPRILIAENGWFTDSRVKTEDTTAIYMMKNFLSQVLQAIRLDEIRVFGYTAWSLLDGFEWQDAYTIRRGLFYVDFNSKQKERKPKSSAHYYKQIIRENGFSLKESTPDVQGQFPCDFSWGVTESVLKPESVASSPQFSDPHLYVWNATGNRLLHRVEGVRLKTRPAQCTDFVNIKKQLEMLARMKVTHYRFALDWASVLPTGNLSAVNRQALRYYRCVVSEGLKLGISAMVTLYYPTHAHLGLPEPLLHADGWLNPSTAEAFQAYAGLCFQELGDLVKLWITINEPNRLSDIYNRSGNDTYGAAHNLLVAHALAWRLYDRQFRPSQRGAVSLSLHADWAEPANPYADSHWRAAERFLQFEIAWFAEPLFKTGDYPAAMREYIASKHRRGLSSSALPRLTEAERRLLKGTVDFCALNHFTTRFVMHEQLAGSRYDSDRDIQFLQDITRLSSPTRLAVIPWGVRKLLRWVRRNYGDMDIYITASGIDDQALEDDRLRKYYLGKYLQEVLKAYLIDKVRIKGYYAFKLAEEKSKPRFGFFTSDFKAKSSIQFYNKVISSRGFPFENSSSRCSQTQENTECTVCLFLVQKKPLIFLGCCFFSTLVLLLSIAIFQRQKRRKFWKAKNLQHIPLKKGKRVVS
Sequence of KLB/FGFR4 on KLB/FGFR4 expressing cells (Q86Z14 whole entry, chain 1 of 2): as the sequence (Q86Z14 whole entry) above
Sequence of KLB/FGFR4 on KLB/FGFR4 expressing cells (P22455 22-802 limits assumed, chain 2 of 2, further chain): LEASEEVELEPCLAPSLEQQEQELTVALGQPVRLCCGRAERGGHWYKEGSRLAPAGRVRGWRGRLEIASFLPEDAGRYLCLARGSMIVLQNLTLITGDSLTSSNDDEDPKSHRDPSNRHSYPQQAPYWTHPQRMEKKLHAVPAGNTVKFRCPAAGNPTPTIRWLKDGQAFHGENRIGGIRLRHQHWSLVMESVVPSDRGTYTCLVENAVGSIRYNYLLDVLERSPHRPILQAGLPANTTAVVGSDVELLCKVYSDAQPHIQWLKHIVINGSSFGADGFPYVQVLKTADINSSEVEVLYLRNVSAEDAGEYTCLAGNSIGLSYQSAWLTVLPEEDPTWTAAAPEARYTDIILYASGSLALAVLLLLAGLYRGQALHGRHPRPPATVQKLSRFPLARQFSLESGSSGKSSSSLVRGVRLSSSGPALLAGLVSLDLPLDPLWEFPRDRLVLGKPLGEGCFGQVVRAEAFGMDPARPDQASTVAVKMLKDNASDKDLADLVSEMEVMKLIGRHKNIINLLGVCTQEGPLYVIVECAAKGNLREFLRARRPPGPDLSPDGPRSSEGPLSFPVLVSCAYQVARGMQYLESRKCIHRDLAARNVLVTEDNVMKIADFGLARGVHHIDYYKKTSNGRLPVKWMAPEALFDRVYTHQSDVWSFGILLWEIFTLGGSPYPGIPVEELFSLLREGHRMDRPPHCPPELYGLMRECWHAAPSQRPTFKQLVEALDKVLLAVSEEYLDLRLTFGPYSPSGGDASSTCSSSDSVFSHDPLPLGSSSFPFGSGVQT

Regarding “FGF-19 (from UniProt O95750 25-216) (ligand)”, the fold increase of pERK at 3000 nM in assay [1] was determined as 2 fold. In assay [2], “Mutant FGF21-GalNAc-SA-PEG-20 kDa (BIO89-100) (from UniProt Q9NSA1 29-209) (ligand)” had a fold increase in pERK at the highest concentration of 3000 nM of less than 2 fold.

Regarding “native FGF-21 (from UniProt Q9NSA1 29-209) (ligand)”, in assay [2], the fold increase in pERK at the highest concentration of 3000 nM was less than 2 fold. Further, the fold increase of pERK at 3000 nM in assay [1] is 2 fold.

For the origin of these results see US11427623.
